The data set in a line: protein stability index of a GFP-peptide fusion (GPS, HEK-293T) (PSI 1-6); higher = more stable. The settings on record: c terminus: a fixed tail appended.

± gives the standard deviation.
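Further: 24-mer peptide tiles fused after GFP, lentivirally expressed, FACS-sorted into six equal bins by GFP/DsRed ratio, decoded by Illumina sequencing, PSI is the read-weighted mean bin number.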

Consider SENARLVLQIDNAKLAADDFRTKY [KRT36], for which the protein stability index is, setting by setting: (treatment: DMSO) 4.03 ± 0.2; (treatment: MLN4924 1 uM, 8 h) 4 ± 0.24.
In the case of ILAFLVLEAVAGALVVALWGPLQD [TSPAN10], the protein stability index came to 2.85 ± 0.24 (treatment: DMSO) and 3.03 ± 0.27 (treatment: MLN4924 1 uM, 8 h).
For the sequence QEPEVPCAAVLPGKPGDRNCPEFP [RSPH3], the protein stability index reads like this: (treatment: DMSO) 5.21 ± 0.12; (treatment: MLN4924 1 uM, 8 h) 5.13 ± 0.14.
Taken in the same sequence, the figures for ELDILPIHPPSGNSDLDPDAQNPM [BTBD10] were 5.45 ± 0.16 and 5.38 ± 0.16.
In the case of TPEAKDLINKMLTINPSKRITAAE [CAMK2A], the protein stability index is, setting by setting: (treatment: DMSO) 4.28 ± 0.17; (treatment: MLN4924 1 uM, 8 h) 4.42 ± 0.1.
DAGSPYLIGLISDRLRRNWPPSFL [SPNS1] returned a protein stability index (treatment: DMSO) of 2.22 ± 0.28 and a protein stability index (treatment: MLN4924 1 uM, 8 h) of 2.08 ± 0.25.
The corresponding values for FVLSCSYDGLDCQARQFRTFHHPT [SCNN1D] are 2.62 ± 0.74 and 2.63 ± 0.58.
Taken in the same sequence, the figures for ILKRTGQRYEHGRTLKSYLGLTNQ [ZNF649] were 2.44 ± 0.24 and 2.63 ± 0.099.
LAPVRQQELASLLRTYLARLPWAG [PBXIP1]: the protein stability index stood at 2.22 ± 0.28 (treatment: DMSO) and 2.12 ± 0.27 (treatment: MLN4924 1 uM, 8 h).
In turn, NRPSFDAILYYYQSGGRLRRPVNV [KCNA1] showed a protein stability index (treatment: DMSO) of 2.24 ± 0.085 and a protein stability index (treatment: MLN4924 1 uM, 8 h) of 2.37 ± 0.14.
As to AVHLCNALVCQVDNDHKEAVGKMG [ZER1], the protein stability index runs as follows: (treatment: DMSO) 3.75 ± 0.23; (treatment: MLN4924 1 uM, 8 h) 3.77 ± 0.13.
The corresponding values for GLLWLLLGSAGAQYEKYSFRGFPP [P3H4] are 3.08 ± 0.098 and 3.71 ± 0.62.
As to VLRCQLGDRLNVEVDAAPPVDLNK [KRT36], the protein stability index was 4.06 ± 0.11 (treatment: DMSO) and 4.14 ± 0.25 (treatment: MLN4924 1 uM, 8 h).
Turning to RYIHSMSLVHMDIKPSNIFISRTS [WEE1], the protein stability index was found to be 1.9 ± 0.47 (treatment: DMSO) and 2.46 ± 0.31 (treatment: MLN4924 1 uM, 8 h).
DNWIPLLWCANILGYAVSTFAMVK [DHCR7]: the protein stability index stood at 3.04 ± 0.44 (treatment: DMSO) and 3.17 ± 0.12 (treatment: MLN4924 1 uM, 8 h).
Take DQVPSMQDGSESFFFRHGHRGLLT [SPAG8]: the protein stability index by setting is: (treatment: DMSO) 3.39 ± 0.28; (treatment: MLN4924 1 uM, 8 h) 3.54 ± 0.35.
With SYLHAKKYLKPSGNMFPTIGDVHL [CARM1], the protein stability index reads like this: (treatment: DMSO) 2.35 ± 0.39; (treatment: MLN4924 1 uM, 8 h) 2.64 ± 0.52.
Taken in the same sequence, the figures for LKNEVERLKKQLRAAQLQHSEKMA [CCDC6] were 2.83 ± 0.32 and 3.14 ± 0.25.
The corresponding values for QCDALIDALNRRKAQLLARVNKEH [TRIM9] are 3.05 ± 0.2 and 3.27 ± 0.23.
MTWSPLACGIVSGKYDSGIPPYSR [KCNAB2]: the protein stability index was found to be 3.19 ± 0.54 (treatment: DMSO) and 2.92 ± 0.3 (treatment: MLN4924 1 uM, 8 h).
In the case of EHICVNNGNSYICKCSEGFVLAED [MATN2], the protein stability index came to 4.61 ± 0.15 (treatment: DMSO) and 4.26 ± 0.53 (treatment: MLN4924 1 uM, 8 h).
Regarding GNFDWEAIFDAGTLGGELGALEAL [FOXJ1], the protein stability index by setting is: (treatment: DMSO) 4.15 ± 0.26; (treatment: MLN4924 1 uM, 8 h) 4.17 ± 0.34.
The sequence LYRGLAPNFMKVIPAVSISYVVYE [SLC25A25] returned a protein stability index (treatment: DMSO) of 2.71 ± 0.67 and a protein stability index (treatment: MLN4924 1 uM, 8 h) of 3.25 ± 0.51.
LAQAAGFAPQTGARPSETFARFCK [DNAAF3] registered a protein stability index (treatment: DMSO) of 3.52 ± 0.23 and a protein stability index (treatment: MLN4924 1 uM, 8 h) of 3.57 ± 0.4.
Consider IFCRDTQTVFQKKNLQQTTNTTST [IQUB], for which the protein stability index runs as follows: (treatment: DMSO) 3.32 ± 0.34; (treatment: MLN4924 1 uM, 8 h) 3.66 ± 0.26.
For the sequence ISAVNYDFDEEYFSNTSELAKDFI [DAPK3], the protein stability index by setting is: (treatment: DMSO) 3.01 ± 0.21; (treatment: MLN4924 1 uM, 8 h) 3.28 ± 0.58.
Regarding VRSRLEEAGIKVHDVRLNGSAAGH [TENT5C], the protein stability index by setting is: (treatment: DMSO) 2.85 ± 0.43; (treatment: MLN4924 1 uM, 8 h) 3.21 ± 0.64.
Consider KEVGSHFDDFVTNLIEKSASLDNG [SOAT1], for which the protein stability index was 4.19 ± 0.26 (treatment: DMSO) and 4.46 ± 0.37 (treatment: MLN4924 1 uM, 8 h).
Consider APLQSVFQGQKTELNNCISMLVAG [TRIM63], for which the protein stability index is 2.85 ± 0.19 (treatment: DMSO) and 2.88 ± 0.22 (treatment: MLN4924 1 uM, 8 h).
